Square brackets hold non-standard residues; d marks the D form. Ends that are not written are not given here. Orn = NCCC[C@H](N)C(=O)O
T1: human CCK-B receptor (human, UniProt P32239 1-447)
T1 sequence (looked up): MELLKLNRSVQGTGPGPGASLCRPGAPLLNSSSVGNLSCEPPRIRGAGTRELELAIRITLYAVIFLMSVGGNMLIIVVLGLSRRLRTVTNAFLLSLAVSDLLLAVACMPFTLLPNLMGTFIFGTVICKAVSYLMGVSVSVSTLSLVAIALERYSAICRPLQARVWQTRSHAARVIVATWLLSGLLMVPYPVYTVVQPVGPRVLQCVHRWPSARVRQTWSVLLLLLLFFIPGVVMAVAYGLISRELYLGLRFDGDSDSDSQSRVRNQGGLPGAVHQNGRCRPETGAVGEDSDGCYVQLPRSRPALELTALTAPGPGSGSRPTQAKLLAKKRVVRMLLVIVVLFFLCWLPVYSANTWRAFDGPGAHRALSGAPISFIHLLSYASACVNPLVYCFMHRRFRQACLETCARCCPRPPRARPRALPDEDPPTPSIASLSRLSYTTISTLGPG

B1: [Glu9,Leu14,Phe25,Tyr13]Exendin-4(1-27)-Orn-Orn-[Leu4]Gastrin6 (peptide)
peptide: HGEGTFTSELSKYLEEEAVRLFIEFLK[Orn][Orn]YGWLDF-NH2
modifications: N-terminus assumed
SMILES: CC[C@H](C)[C@H](NC(=O)[C@H](Cc1ccccc1)NC(=O)[C@H](CC(C)C)NC(=O)[C@H](CCCNC(=N)N)NC(=O)[C@@H](NC(=O)[C@H](C)NC(=O)[C@H](CCC(=O)O)NC(=O)[C@H](CCC(=O)O)NC(=O)[C@H](CCC(=O)O)NC(=O)[C@H](CC(C)C)NC(=O)[C@H](Cc1ccc(O)cc1)NC(=O)[C@H](CCCCN)NC(=O)[C@H](CO)NC(=O)[C@H](CC(C)C)NC(=O)[C@H](CCC(=O)O)NC(=O)[C@H](CO)NC(=O)[C@@H](NC(=O)[C@H](Cc1ccccc1)NC(=O)[C@@H](NC(=O)CNC(=O)[C@H](CCC(=O)O)NC(=O)CNC(=O)[C@@H](N)Cc1c[nH]cn1)[C@@H](C)O)[C@@H](C)O)C(C)C)C(=O)N[C@@H](CCC(=O)O)C(=O)N[C@@H](Cc1ccccc1)C(=O)N[C@@H](CC(C)C)C(=O)N[C@@H](CCCCN)C(=O)N[C@@H](CCCN)C(=O)N[C@@H](CCCN)C(=O)N[C@@H](Cc1ccc(O)cc1)C(=O)NCC(=O)N[C@@H](Cc1c[nH]c2ccccc12)C(=O)N[C@@H](CC(C)C)C(=O)N[C@@H](CC(=O)O)C(=O)N[C@@H](Cc1ccccc1)C(N)=O

molecular target: human GLP-1 receptor (human, UniProt P43220 24-463); assay: cell-based or functional assay

Point of comparison: HGEGTFTSDLSKQMEEEAVRLFIEWLKEEEEAYGWLDF (C-terminal amide) [Exendin-4(1-27)-[Leu4]Gastrin11], “hGLP-1 R EC50 (cAMP)” value 0.1 nM. Against it:
- HGEGTFTSELSKYLEEEAVRLFIEFLK[Peg3][Orn]YGWLDF-NH2 [[Glu9,Leu14,Phe25,Tyr13]Exendin-4(1-27)-Peg3-Orn-[Leu4]Gastrin6] — within 1.5-fold, 0.087 nM
- HGEGTFTSDLSKQLEEEAVRLFIEFLKXXYGWLDF (Peg3-Peg3 linker; C-terminal amide) [[Leu14,Phe25]Exendin-4(1-27)-Peg3-Peg3-[Leu4]Gastrin6] — 3.8-fold lower, 0.026 nM
- HGEGTFTSDLSRYLEEEAVRLFIEFLK[Peg3]YGWLDF-NH2 [[Arg12,Leu14,Phe25,Tyr13]Exendin-4(1-27)-Peg3-[Leu4]Gastrin6] — within 1.5-fold, 0.079 nM
- HGEGTFTSDLSKYLEEEAVRLFIEWLK[Peg3][Peg3]YGWLDF-NH2 [[Tyr13,Leu14]Exendin-4(1-27)-Peg3-Peg3-[Leu4]Gastrin6] — 2-fold lower, 0.05 nM
- HGEGTFTSDLSRYLEKEAVRLFIEFLR[Peg3]YGWLDF-NH2 [[Arg12,27,Leu14,Lys16,Phe25,Tyr13]Exendin-4(1-27)-Peg3-[Leu4]Gastrin6] — 1.7-fold higher, 0.17 nM
- HGEGTFTSDLSKQMEEEAVRLFIEWLKDXXYGWLDF (Peg3-Peg3 linker; C-terminal amide) [[Asp28]Exendin-4(1-28)-Peg3-Peg3-[Leu4]Gastrin6] — 1.6-fold lower, 0.061 nM
- B1 — within 1.5-fold, 0.11 nM
- HGEGTFTSDLSKYMEEEAVRLFIEWLKN[Peg3][Peg3]YGWLDF-NH2 [[Tyr13]Exendin-4(1-28)-Peg3-Peg3-[Leu4]Gastrin6] — 2.2-fold lower, 0.046 nM
- HGEGTFTSELSKYLEEEAVRLFIEFLKWLDF-NH2 [[Glu9,Leu14,Phe25,Tyr13]Exendin-4(1-27)-[Leu2]Gastrin4] — 12-fold higher, 1.2 nM
- HGEGTFTSDLSKYLEEEAVRLFIEFLR[Peg3]YGWLDF-NH2 [[Arg27,Leu14,Phe25,Tyr13]Exendin-4(1-27)-Peg3-[Leu4]Gastrin6] — within 1.5-fold, 0.068 nM
- HGEGTFTSDLSKYLEEEAVRLFIEFLK[Peg3][Peg3]YGWLDF-NH2 [[Tyr13,Leu14,Phe25]Exendin-4(1-27)-Peg3-Peg3-[Leu4]Gastrin6] — 2.3-fold lower, 0.044 nM
- HGEGTFTSELSKYLEEEAVRLFIEFLK[Orn][Peg3]WLDF-NH2 [[Glu9,Leu14,Phe25,Tyr13]Exendin-4(1-27)-Orn-Peg3-[Leu2]Gastrin4] — 2.2-fold lower, 0.046 nM
- HGEGTFTSELSKYLEEEAVRLFIEFLK[Peg3][Peg3]YGWLDF-NH2 [[Glu9,Leu14,Phe25,Tyr13]Exendin-4(1-27)-Peg3-Peg3-[Leu4]Gastrin6] — 2.2-fold lower, 0.046 nM

molecular target: T1, human CCK-B receptor; assay: cell-based or functional assay

Point of comparison: HGEGTFTSDLSKYMEEEAVRLFIEWLKN[Peg3][Peg3]YGWLDF-NH2 [[Tyr13]Exendin-4(1-28)-Peg3-Peg3-[Leu4]Gastrin6], “hCCK-B R EC50 (p-ERK)” value 12 nM. Against it:
- HGEGTFTSDLSKQLEEEAVRLFIEWLKNYGWLDX (3-(3-Pyridyl)-alanine at position 6 of the Gastrin6 moiety; C-terminal amide) [[Leu14]Exendin-4(1-28)-[Leu4,[3-(3-Pyridyl)-Ala]6]Gastrin6] — 1.7-fold higher, 20 nM
- HGEGTFTSELSKYLEEEAVRLFIEFLK[Peg3][Orn]YGWLDF-NH2 [[Glu9,Leu14,Phe25,Tyr13]Exendin-4(1-27)-Peg3-Orn-[Leu4]Gastrin6] — within 1.5-fold, 8.8 nM
- HGEGTFTSDLSKQLEEEAVRLFIEFLKXXYGWLDF (Peg3-Peg3 linker; C-terminal amide) [[Leu14,Phe25]Exendin-4(1-27)-Peg3-Peg3-[Leu4]Gastrin6] — 1.5-fold lower, 7.9 nM
- HGEGTFTSELSKYLEEEAVRLFIEFLK[Peg3]YGWLDF-NH2 [[Glu9,Leu14,Phe25,Tyr13]Exendin-4(1-27)-Peg3-[Leu4]Gastrin6] — 4.5-fold higher, 54 nM
- HGEGTFTSDLSRYLEEEAVRLFIEFLK[Peg3]YGWLDF-NH2 [[Arg12,Leu14,Phe25,Tyr13]Exendin-4(1-27)-Peg3-[Leu4]Gastrin6] — within 1.5-fold, 14 nM
- HGEGTFTSDLSKYLEEEAVRLFIEWLK[Peg3][Peg3]YGWLDF-NH2 [[Tyr13,Leu14]Exendin-4(1-27)-Peg3-Peg3-[Leu4]Gastrin6] — within 1.5-fold, 8.4 nM
- HGEGTFTSDLSKYLEEEAVRLFIEFLK[Peg3][Peg3]YGFLDF-NH2 [[Leu14,Phe25,Tyr13]Exendin-4(1-27)-Peg3-Peg3-[Leu4,Phe3]Gastrin6] — 100-fold higher, 1200 nM
- HGEGTFTSDLSRYLEKEAVRLFIEFLR[Peg3]YGWLDF-NH2 [[Arg12,27,Leu14,Lys16,Phe25,Tyr13]Exendin-4(1-27)-Peg3-[Leu4]Gastrin6] — 2.2-fold higher, 26 nM
- HGEGTFTSDLSKQMEEEAVRLFIEWLKDXXYGWLDF (Peg3-Peg3 linker; C-terminal amide) [[Asp28]Exendin-4(1-28)-Peg3-Peg3-[Leu4]Gastrin6] — 3.6-fold lower, 3.3 nM
- B1 — within 1.5-fold, 16 nM
- HGEGTFTSELSKYLEEEAVRLFIEFLKWLDF-NH2 [[Glu9,Leu14,Phe25,Tyr13]Exendin-4(1-27)-[Leu2]Gastrin4] — 18-fold higher, 211 nM
- HGEGTFTSDLSKYLEEEAVRLFIEFLR[Peg3]YGWLDF-NH2 [[Arg27,Leu14,Phe25,Tyr13]Exendin-4(1-27)-Peg3-[Leu4]Gastrin6] — 1.5-fold higher, 18 nM
- HGEGTFTSDLSKQMEEEAVRLFIEWLKEEEEAYGWLDF (C-terminal amide) [Exendin-4(1-27)-[Leu4]Gastrin11] — 2.8-fold lower, 4.3 nM
- HGEGTFTSELSKYLEEEAVRLFIEFLK[Orn][Peg3]WLDF-NH2 [[Glu9,Leu14,Phe25,Tyr13]Exendin-4(1-27)-Orn-Peg3-[Leu2]Gastrin4] — within 1.5-fold, 10 nM
- HGEGTFTSELSKYLEEEAVRLFIEFLK[Peg3][Peg3]YGWLDF-NH2 [[Glu9,Leu14,Phe25,Tyr13]Exendin-4(1-27)-Peg3-Peg3-[Leu4]Gastrin6] — 1.7-fold higher, 20 nM

From patent US20130143793A1 (ZEALAND PHARMA A S, published 2013)
